In PMC9709061, “HSP90-CDC37-PP5 forms a structural platform for kinase dephosphorylation” (Nature Communications, 2022):

Experiments:
BRAF^V600E = target: T1, BRAF^V600E (human, UniProt P15056 1-766, V600E, phosphorylated as purified: Ser151, Ser339, Ser365, Thr401, Ser429, Ser432, Ser446, Ser614, Ser675, Ser729, Ser750, Thr753 (mass spectrometry; pSer729 also by western blot)); test: cryo-EM structure; HSP90–CDC37–BRAF^V600E complex incubated with PP5 D274N, purified by SEC, cross-linked with 1 mM BS3; one sample gave three classes: HCK (3.4 Å), HCK-P open (4.2 Å), HCK-P closed (3.9 Å); PP5 modelled by rigid-body docking; settings: both partners purified
T1 construct: human BRAF, full length (84 kDa), oncogenic V600E mutant; A 3C site lies between protein and tag; no cleavage step is described; also called kinase client; not shown: 2xStrep, N-terminal, kept
T1 sequence (P15056 whole entry V600E): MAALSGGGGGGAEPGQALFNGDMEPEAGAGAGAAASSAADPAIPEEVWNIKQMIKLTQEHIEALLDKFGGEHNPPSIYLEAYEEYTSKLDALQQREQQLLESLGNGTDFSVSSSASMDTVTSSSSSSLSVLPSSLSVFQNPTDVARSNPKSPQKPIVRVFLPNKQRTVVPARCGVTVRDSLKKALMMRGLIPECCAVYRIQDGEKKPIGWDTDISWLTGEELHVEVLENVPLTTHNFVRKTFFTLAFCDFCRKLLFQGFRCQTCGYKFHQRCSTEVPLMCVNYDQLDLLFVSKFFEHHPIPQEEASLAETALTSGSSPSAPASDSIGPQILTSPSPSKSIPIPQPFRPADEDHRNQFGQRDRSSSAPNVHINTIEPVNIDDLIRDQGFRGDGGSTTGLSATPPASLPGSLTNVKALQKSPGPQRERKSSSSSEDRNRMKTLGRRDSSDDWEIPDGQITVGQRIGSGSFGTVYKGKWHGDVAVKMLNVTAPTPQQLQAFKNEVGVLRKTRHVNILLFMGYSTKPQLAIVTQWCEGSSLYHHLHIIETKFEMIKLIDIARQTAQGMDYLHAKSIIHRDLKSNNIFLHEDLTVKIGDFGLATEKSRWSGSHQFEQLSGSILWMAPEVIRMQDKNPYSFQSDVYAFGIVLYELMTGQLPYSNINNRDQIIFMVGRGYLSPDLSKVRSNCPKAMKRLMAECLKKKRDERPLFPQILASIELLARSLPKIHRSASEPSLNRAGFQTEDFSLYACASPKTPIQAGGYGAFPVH

HSP90β = target: T2, HSP90β (human, UniProt P08238 1-724, phosphorylation at Ser226 and Ser255 found by mass spectrometry); test: as above; settings: both partners purified
T2 construct: human HSP90β, full length; A 3C protease site lies between protein and tag; no cleavage step is described; Captured on Talon resin during the co-purification; source: co-purified (Talon, Streptactin, Superdex S200); not shown: His8, N-terminal, kept
T2 sequence (P08238 whole entry): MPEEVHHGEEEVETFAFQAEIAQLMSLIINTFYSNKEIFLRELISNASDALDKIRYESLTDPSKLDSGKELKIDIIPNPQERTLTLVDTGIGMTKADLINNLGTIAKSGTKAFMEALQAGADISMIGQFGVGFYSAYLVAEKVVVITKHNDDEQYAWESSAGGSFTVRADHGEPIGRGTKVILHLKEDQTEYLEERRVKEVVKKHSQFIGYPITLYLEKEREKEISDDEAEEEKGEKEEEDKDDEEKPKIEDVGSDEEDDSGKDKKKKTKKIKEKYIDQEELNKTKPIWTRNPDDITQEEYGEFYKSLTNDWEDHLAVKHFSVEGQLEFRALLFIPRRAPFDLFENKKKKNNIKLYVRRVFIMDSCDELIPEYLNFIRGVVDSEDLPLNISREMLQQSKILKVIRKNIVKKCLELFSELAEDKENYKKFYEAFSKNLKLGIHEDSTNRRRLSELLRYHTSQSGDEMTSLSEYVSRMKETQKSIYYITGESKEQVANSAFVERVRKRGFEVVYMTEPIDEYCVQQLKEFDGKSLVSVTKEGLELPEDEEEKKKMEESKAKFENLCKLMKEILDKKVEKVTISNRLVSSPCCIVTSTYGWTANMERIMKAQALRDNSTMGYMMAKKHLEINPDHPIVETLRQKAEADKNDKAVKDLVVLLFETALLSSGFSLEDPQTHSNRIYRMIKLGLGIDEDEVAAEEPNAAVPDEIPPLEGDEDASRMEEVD

B1: PP5 D274N (enzyme, human, UniProt P53041 16-499, looked up)
chain: RDEPPADGALKRAEELKTQANDYFKAKDYENAIKFYSQAIELNPSNAIYYGNRSLAYLRTECYGYALGDATRAIELDKKYIKGYYRRAASNMALGKFRAALRDYETVVKVKPHDKDAKMKYQECNKIVKQKAFERAIAGDEHKRSVVDSLDIESMTIEDEYSGPKLEDGKVTISFMKELMQWYKDQKKLHRKCAYQILVQVKEVLSKLSTLVETTLKETEKITVCGDTHGQFYDLLNIFELNGLPSETNPYIFNGDFVNRGSFSVEVILTLFGFKLLYPDHFHLLRGNHETDNMNQIYGFEGEVKAKYTAQMYELFSEVFEWLPLAQCINGKVLIMHGGLFSEDGVTLDDIRKIERNRQPPDSGPMCDLLWSDPQPQNGRSISKRGVSCQFGPDVTKAFLEENNLDYIIRSHEVKAEGYEVAHGGRCVTVFSAPNYCDQMGNKASYIHLQGSDLRPQFHQFTAVPHPNVKPMAYANTLLQLGMM
notes: human PP5 (serine/threonine protein phosphatase 5), residues 16-499, D274N; also called catalytically dead PP5
BRAF^V600E
  binding result: binds
HSP90β
  binding result: binds
